# Where a chain is given by its changes, count along the chain named. In names and notes the source's numbering stands.
# T1: TIGIT (human)
# T1 chain: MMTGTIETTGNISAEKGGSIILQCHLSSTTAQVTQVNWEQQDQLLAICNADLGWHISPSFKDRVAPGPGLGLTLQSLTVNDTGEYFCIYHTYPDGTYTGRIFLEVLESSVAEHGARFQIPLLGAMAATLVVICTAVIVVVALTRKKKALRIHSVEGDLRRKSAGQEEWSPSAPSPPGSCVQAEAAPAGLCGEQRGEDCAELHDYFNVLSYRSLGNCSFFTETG
# B1: variant CD155 IgV-Fc V9L, P18F, T45A, S65A, S67V, R78K, L79V, F91S, T107M, S114T (Fc fusion)
# chain: WPPPGTGDLVVQAPTQVFGFLGDSVTLPCYLQVPNMEVTHVSQLAWARHGESGSMAVFHQTQGPAYVESKRLEFVAAKVGAELRNASLRMSGLRVEDEGNYTCLFVMFPQGSRTVDIWLRVLGSGGGGSEPKSSDKTHTCPPCPAPEAEGAPSVFLFPPKPKDTLMISRTPEVTCVVVDVSHEDPEVKFNWYVDGVEVHNAKTKPREEQYNSTYRVVSVLTVLHQDWLNGKEYKCKVSNKALPAPIEKTISKAKGQPREPQVYTLPPSRDELTKNQVSLTCLVKGFYPSDIAVEWESNGQPENNYKTTPPVLDSDGSFFLYSKLTVDKSRWQQGNVFSCSVMHEALHNHYTQKSLSLSPGK
# B2: variant CD155 IgV-Fc P18S, Q32R, Q62K, R78G, L79P, F91S, T107A, R113W (Fc fusion)
# chain: WPPPGTGDVVVQAPTQVSGFLGDSVTLPCYLRVPNMEVTHVSQLTWARHGESGSMAVFHQTKGPSYSESKRLEFVAAGPGAELRNASLRMSGLRVEDEGNYTCLFVAFPQGSWSVDIWLRVLGSGGGGSEPKSSDKTHTCPPCPAPEAEGAPSVFLFPPKPKDTLMISRTPEVTCVVVDVSHEDPEVKFNWYVDGVEVHNAKTKPREEQYNSTYRVVSVLTVLHQDWLNGKEYKCKVSNKALPAPIEKTISKAKGQPREPQVYTLPPSRDELTKNQVSLTCLVKGFYPSDIAVEWESNGQPENNYKTTPPVLDSDGSFFLYSKLTVDKSRWQQGNVFSCSVMHEALHNHYTQKSLSLSPGK
# B3: variant CD155 IgV-Fc P18S, Q62K, K70E, L79P, F91S, G92E, R113W (Fc fusion)
# chain: B2 chain with R32Q, K70E, G78R, G92E, A107T
# B4: variant CD155 IgV-Fc V9I, P18S, S24P, H49Q, F58Y, Q60R, Q62K, L79P, F91S, T107M (Fc fusion)
# chain: B2 chain with V9I, S24P, R32Q, H49Q, F58Y, Q60R, G78R, A107M, W113R
# B5: variant CD155 IgV-Fc T15I, P18S, V33M, N35F, T39S, M55L, R78S, L79P, F91S, T107M (Fc fusion)
# chain: B2 chain with T15I, R32Q, V33M, N35F, T39S, M55L, K62Q, G78S, A107M, W113R
# B6: variant CD155 IgV-Fc P18S, D23G, C29R, N35D, E37G, M55I, Q62K, S65A, S67G, R78G, L79P, F91S, L104M, T107M, Q110R (Fc fusion)
# chain: WPPPGTGDVVVQAPTQVSGFLGGSVTLPRYLQVPDMGVTHVSQLTWARHGESGSIAVFHQTKGPAYGESKRLEFVAAGPGAELRNASLRMSGLRVEDEGNYTCMFVMFPRGSRSVDIWLRVLGSGGGGSEPKSSDKTHTCPPCPAPEAEGAPSVFLFPPKPKDTLMISRTPEVTCVVVDVSHEDPEVKFNWYVDGVEVHNAKTKPREEQYNSTYRVVSVLTVLHQDWLNGKEYKCKVSNKALPAPIEKTISKAKGQPREPQVYTLPPSRDELTKNQVSLTCLVKGFYPSDIAVEWESNGQPENNYKTTPPVLDSDGSFFLYSKLTVDKSRWQQGNVFSCSVMHEALHNHYTQKSLSLSPGK
# B7: variant CD155 IgV-Fc P18T, G19D, M36T, S54N, L79P, L83Q, F91S, T107M, F108Y (Fc fusion)
# chain: WPPPGTGDVVVQAPTQVTDFLGDSVTLPCYLQVPNTEVTHVSQLTWARHGESGNMAVFHQTQGPSYSESKRLEFVAARPGAEQRNASLRMSGLRVEDEGNYTCLFVMYPQGSRSVDIWLRVLGSGGGGSEPKSSDKTHTCPPCPAPEAEGAPSVFLFPPKPKDTLMISRTPEVTCVVVDVSHEDPEVKFNWYVDGVEVHNAKTKPREEQYNSTYRVVSVLTVLHQDWLNGKEYKCKVSNKALPAPIEKTISKAKGQPREPQVYTLPPSRDELTKNQVSLTCLVKGFYPSDIAVEWESNGQPENNYKTTPPVLDSDGSFFLYSKLTVDKSRWQQGNVFSCSVMHEALHNHYTQKSLSLSPGK
# B8: variant CD155 IgV-Fc P18S, H59N, V75A, L79P, A81T, F91S, L104M, T107M (Fc fusion)
# chain: B2 chain with R32Q, H59N, K62Q, V75A, G78R, A81T, L104M, A107M, W113R
# B9: variant CD155 IgV-Fc V9L, P18L, M55V, S69L, L79P, A81E, F91S, T107M (Fc fusion)
# chain: B1 chain with F18L, A45T, M55V, A65S, V67S, S69L, K78R, V79P, A81E, T114S
# B10: variant CD155 IgV-Fc P18T, D23G, Q60R, S67L, L79P, F91S, T107M, V115A (Fc fusion)
# chain: B7 chain with D19G, D23G, T36M, N54S, Q60R, S67L, Q83L, Y108F, V115A
# B11: variant CD155 IgV-Fc V10F, T15S, P18L, R48Q, L79P, F91S, T107M, V115M (Fc fusion)
# chain: B2 chain with V10F, T15S, S18L, R32Q, R48Q, K62Q, G78R, A107M, W113R, V115M
# B12: variant CD155 IgV-Fc Q12H, P18T, L21S, G22S, V57A, Q62R, L79P, F91S, T107M (Fc fusion)
# chain: B2 chain with Q12H, S18T, L21S, G22S, R32Q, V57A, K62R, G78R, A107M, W113R
# B13: variant CD155 IgV-Fc P18T, M55L, T61R, L79P, F91S, V106I, T107M (Fc fusion)
# chain: B7 chain with D19G, T36M, N54S, M55L, T61R, Q83L, V106I, Y108F
# B14: variant CD155 IgV-Fc P18S, P34S, E51V, L79P, F91S, G111R (Fc fusion)
# chain: B2 chain with R32Q, P34S, E51V, K62Q, G78R, A107T, G111R, W113R
# B15: variant CD155 IgV-Fc P18S, W46R, E68D, L79P, F91S, T107M, R113G (Fc fusion)
# chain: B2 chain with R32Q, W46R, K62Q, E68D, G78R, A107M, W113G
# B16: variant CD155 IgV-Fc P18T, T39S, S52P, S54R, L79P, F91S, T107M (Fc fusion)
# chain: B7 chain with D19G, T36M, T39S, S52P, N54R, Q83L, Y108F
# B17: variant CD155 IgV-Fc V9I, P18F, A47E, G50S, E68G, L79P, F91S, T107M (Fc fusion)
# chain: B1 chain with L9I, A45T, A47E, G50S, A65S, V67S, E68G, K78R, V79P, T114S
# B18: variant CD155 IgV-Fc P18T, W46C, H49R, S65A, S67V, A76T, L79P, S87T, L104M (Fc fusion)
# chain: WPPPGTGDVVVQAPTQVTGFLGDSVTLPCYLQVPNMEVTHVSQLTCARRGESGSMAVFHQTQGPAYVESKRLEFVTARPGAELRNATLRMFGLRVEDEGNYTCMFVTFPQGSRSVDIWLRVLGSGGGGSEPKSSDKTHTCPPCPAPEAEGAPSVFLFPPKPKDTLMISRTPEVTCVVVDVSHEDPEVKFNWYVDGVEVHNAKTKPREEQYNSTYRVVSVLTVLHQDWLNGKEYKCKVSNKALPAPIEKTISKAKGQPREPQVYTLPPSRDELTKNQVSLTCLVKGFYPSDIAVEWESNGQPENNYKTTPPVLDSDGSFFLYSKLTVDKSRWQQGNVFSCSVMHEALHNHYTQKSLSLSPGK
# B19: variant CD155 IgV-Fc D8G, V9I, V11A, P18T, T26M, S52P, L79P, F91S, G92A, T107L, V115A (Fc fusion)
# chain: WPPPGTGGIVAQAPTQVTGFLGDSVMLPCYLQVPNMEVTHVSQLTWARHGEPGSMAVFHQTQGPSYSESKRLEFVAARPGAELRNASLRMSALRVEDEGNYTCLFVLFPQGSRSADIWLRVLGSGGGGSEPKSSDKTHTCPPCPAPEAEGAPSVFLFPPKPKDTLMISRTPEVTCVVVDVSHEDPEVKFNWYVDGVEVHNAKTKPREEQYNSTYRVVSVLTVLHQDWLNGKEYKCKVSNKALPAPIEKTISKAKGQPREPQVYTLPPSRDELTKNQVSLTCLVKGFYPSDIAVEWESNGQPENNYKTTPPVLDSDGSFFLYSKLTVDKSRWQQGNVFSCSVMHEALHNHYTQKSLSLSPGK
# B20: variant CD155 IgV-Fc P18S, L21M, Y30F, N35D, R84W, F91S, T107M, D116G (Fc fusion)
# chain: WPPPGTGDVVVQAPTQVSGFMGDSVTLPCFLQVPDMEVTHVSQLTWARHGESGSMAVFHQTQGPSYSESKRLEFVAARLGAELWNASLRMSGLRVEDEGNYTCLFVMFPQGSRSVGIWLRVLGSGGGGSEPKSSDKTHTCPPCPAPEAEGAPSVFLFPPKPKDTLMISRTPEVTCVVVDVSHEDPEVKFNWYVDGVEVHNAKTKPREEQYNSTYRVVSVLTVLHQDWLNGKEYKCKVSNKALPAPIEKTISKAKGQPREPQVYTLPPSRDELTKNQVSLTCLVKGFYPSDIAVEWESNGQPENNYKTTPPVLDSDGSFFLYSKLTVDKSRWQQGNVFSCSVMHEALHNHYTQKSLSLSPGK
# B21: variant CD155 IgV-Fc P18F, E51V, S54G, Q60R, L79Q, E82G, S87T, M90I, F91S, G92R, T107M (Fc fusion)
# chain: WPPPGTGDVVVQAPTQVFGFLGDSVTLPCYLQVPNMEVTHVSQLTWARHGVSGGMAVFHRTQGPSYSESKRLEFVAARQGAGLRNATLRISRLRVEDEGNYTCLFVMFPQGSRSVDIWLRVLGSGGGGSEPKSSDKTHTCPPCPAPEAEGAPSVFLFPPKPKDTLMISRTPEVTCVVVDVSHEDPEVKFNWYVDGVEVHNAKTKPREEQYNSTYRVVSVLTVLHQDWLNGKEYKCKVSNKALPAPIEKTISKAKGQPREPQVYTLPPSRDELTKNQVSLTCLVKGFYPSDIAVEWESNGQPENNYKTTPPVLDSDGSFFLYSKLTVDKSRWQQGNVFSCSVMHEALHNHYTQKSLSLSPGK
# Molecular target: T1, TIGIT
# Test: cell-based or functional assay
row,"IL-2 luciferase reporter, Normalized Fold Change from CD155-ECD",Binder
1,6 fold,B1
2,-2.2 fold,B2
3,2 fold,B3
4,1.1 fold,B4
5,1.3 fold,B5
6,1.2 fold,B6
7,0.3 fold,B7
8,3.5 fold,B8
9,3.1 fold,B9
10,8.6 fold,B10
11,-3.4 fold,B11
12,-4.1 fold,B12
13,4.5 fold,B13
14,2.1 fold,B14
15,0.9 fold,B15
16,-0.1 fold,B16
17,3 fold,B17
18,-3.4 fold,B18
19,8.4 fold,B19
20,-2.2 fold,B20
21,5.8 fold,B21
